Measurements: article PMC10686824, “Bacterial cGAS senses a viral RNA to initiate immunity”

T1: His6-MBP-Ssc-CdnE03 (UniProt P0DXA6 1-324)
T1 sequence: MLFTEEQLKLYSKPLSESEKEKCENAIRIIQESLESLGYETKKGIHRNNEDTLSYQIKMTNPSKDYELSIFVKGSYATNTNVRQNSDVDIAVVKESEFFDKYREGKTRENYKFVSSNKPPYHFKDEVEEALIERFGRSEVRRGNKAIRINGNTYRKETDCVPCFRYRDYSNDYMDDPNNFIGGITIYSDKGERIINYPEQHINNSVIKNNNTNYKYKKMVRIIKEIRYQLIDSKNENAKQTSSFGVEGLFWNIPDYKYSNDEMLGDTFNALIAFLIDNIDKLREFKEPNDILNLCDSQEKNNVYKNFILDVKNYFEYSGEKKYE


Target: T1, His6-MBP-Ssc-CdnE03
Assay: pull-down; total RNA of infected cells; EMSA: 50 mM CAPSO pH 9.4, 50 mM KCl, 5 mM Mg acetate, 1 mM DTT, 4 C 25 min, 1 uM RNA, 2% agarose in 1x TB; pull-down on cobalt resin, buffer not given in material
Conditions: protein: recombinant, tags: His6-MBP

Binder | binding result | binding result (hairpin (predicted))
200-nt RNA from 80alpha-vir(cabRNA57) (structured_RNA) RNA: AGAGGAGAACCUCAAGAGGCUUACAGUAAGAAAUAUGACCAUUUAAACGAUGAAGUGGAAAAAGAGGUUACUUACACAAUCACACCAACUUUUGAAGAGCGUCAGAGAUCUAUUGACCACAUACUAAAAGUUCAUGGUGCGUAUAUCGACAAAAAAGAAAUUACUCAGAAGAAUAUUGAGAUUAAUAUUGGUGAGUACGA | binds | –
GAAUGUUAUGGCAAUGCUACUAAGUCAGCUGUGC (structured_RNA) [cabRNA PhiJ1/2 (34 nt)] | – | binds
80-nt RNA from 80alpha-vir(cabRNA100) (structured_RNA) RNA: AUGGUGCGUAUAUCGACAAAAAAGAAAUUACUCAGAAGAAUAUUGAGAUUAAUAUUGGUGAGUACGAUGACGAAAGUUAA | binds | –
UUCCGGAAGAUGAUUAGUCAUGUAUGAAAUACUUGAUCUAAAAAAUAAA (structured_RNA) [cabRNA PhiJ4 (49 nt)] | – | binds
